Measurements reported in patent US20150376276A1 (Seagen, published 2015).
Blank lines part the entries; values can stand above or below the molecule they belong to.

Columns and labels:
[1] = target: T1, human NTB-A (human, UniProt Q96DU3 22-332); assay: flow cytometry competition on NTB-A positive Ramos cells; competitor: AF647-labelled 11A1 at 0.0188 ug/mL; half of the partial effect, not 50% of maximum binding
T1 construct: whole, on cells; also called SLAMF6; hNTB-A
T1 sequence (looked up): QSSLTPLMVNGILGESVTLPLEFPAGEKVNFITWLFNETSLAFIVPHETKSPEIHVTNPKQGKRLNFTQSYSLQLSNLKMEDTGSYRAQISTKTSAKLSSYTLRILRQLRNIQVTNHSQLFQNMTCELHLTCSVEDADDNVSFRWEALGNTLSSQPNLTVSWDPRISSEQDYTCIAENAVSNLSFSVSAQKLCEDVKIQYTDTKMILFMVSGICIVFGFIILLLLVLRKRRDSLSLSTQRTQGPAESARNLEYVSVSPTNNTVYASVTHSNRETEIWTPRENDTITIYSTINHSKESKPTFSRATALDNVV

[2] = target: T1, human NTB-A; assay: flow cytometry, saturation binding of Alexa Fluor 647-labelled antibody on Ramos cells
Protocol: Antigen positive Ramos cells were plated at 1×10⁵ cells per well in a 96 well V-bottom plate (Thermo Scientific, Rochester, N.Y.). Three-fold serial dilutions of 2× concentrated antibodies were prepared in FACs buffer (PBS+2% fetal bovine serum+0.02% azide) and were added to the cells in duplicate. The antibody solutions were incubated with cells for 1 hour on ice, protected from light. The cells were washed twice with FACs buffer and analyzed on the LSRII flow cytometer (BD BioSciences, San Jose, Calif.). KD values were determined with GraphPad Prism software (La Jolla, Calif.).

[3] = target: T1, human NTB-A; assay: flow cytometry competition on NTB-A positive Ramos cells; competitor: AF647-labelled 11A1 at 0.0188 ug/mL
Excerpt: To evaluate whether an antibody competes for specific binding to human NTB-A with a mAb comprising the VH and VL domains of the 11A1 mAb (i.e., a VH domain having the amino acid sequence as shown in residues 20-135 of SEQ ID NO:1 and a VL domain having the amino acid sequence as shown in residues 21-140 of SEQ ID NO:2), a competitive binding assay as follows is used.
This assay utilizes a “reference antibody” comprising the 11A1 murine IgG1 antibody (i.e., the 11A1 VH and VL domains in the bivalent structure of a native antibody). NTB-A positive Ramos cells are plated at 2×10⁵ cells per well in a 96 well V-bottom plate (Thermo Scientific, Rochester, N.Y.). […] The antibody solutions are incubated with cells for 1 hour on ice, protected from light. The cells are washed twice with FACs buffer and analyzed on the LSRII flow cytometer (BD BioSciences, San Jose, Calif.). Data are presented as percent of maximum binding. The sample antibody “competes with” the labeled reference antibody for specific binding to NTB-A if the sample antibody reduces the reference antibody's binding to NTB-A to levels less than 45% of maximum binding (i.e., 0 to 45%) at a concentration of 10 μg/ml of unlabeled sample antibody. […]

IC50 (read off the curve) [1]: 0.1 mg/L
Molecule: NT-7 antibody (clone: NT-7 (Biolegend #317208))

Kd [2]: 0.16 nM | IC50 (read off the curve) [3]: ~0.08 mg/L
B1: 26B7 murine IgG1 antibody (antibody, V domains shown)
VH: QVQLLQPGAEVVKPGTSVKLSCKASGYNFTIYWINWVKLRPGQGLEWIGDIHPGRGNTNLNEKFKTKATLTVDTSSSTAYMQLNSLAFEDSALYYCAREDEDWYFDVWGAGTTVTVSS
VL: DIQMNQSPSSLSASLGDTITITCRASQGISIWFNWYQQKSGNIPKLLIYKTSNLHTGVPPRFSGSGSGTDFTLTISSLQPEDIATYYCLQSQSYPYTFGGGTKLEIKR
notes: Murine IgG1; also called mAb 26B7
